Assay results reported in paper PMC4020902.

Biological target: human USP11 N-terminal DUSP-UBL (DU) domains, residues 24-244 (human)
Assay: SEC; gel filtration of hUSP11DU at concentrations associated with crystallization

fraction of dimer: 5%
Substance: human USP11 N-terminal DUSP-UBL (DU) domains, residues 24-244 (domain or fragment)
